These are literature values, as cited in PMC10171305.

Data set [1] deals with Spike (SARS-CoV-2) (UniProt P0DTC2).
Data set [2] has the same target. This is another data set of the same source.

Like-named read-outs stand apart in the source and are kept apart here.

Sequence of KREMEN1 (Q96MU8 20-392): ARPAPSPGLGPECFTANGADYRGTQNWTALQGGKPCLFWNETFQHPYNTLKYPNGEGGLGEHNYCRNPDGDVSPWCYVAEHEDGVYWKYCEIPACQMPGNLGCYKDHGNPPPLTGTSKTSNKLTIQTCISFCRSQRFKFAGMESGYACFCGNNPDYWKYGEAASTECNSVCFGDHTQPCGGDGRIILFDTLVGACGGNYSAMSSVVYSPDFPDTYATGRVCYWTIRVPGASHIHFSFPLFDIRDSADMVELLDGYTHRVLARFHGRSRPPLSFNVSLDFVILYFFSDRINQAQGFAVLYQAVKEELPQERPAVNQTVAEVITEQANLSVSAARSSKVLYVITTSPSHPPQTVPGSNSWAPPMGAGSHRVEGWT
Sequence of ASGR1 (P07306 whole entry): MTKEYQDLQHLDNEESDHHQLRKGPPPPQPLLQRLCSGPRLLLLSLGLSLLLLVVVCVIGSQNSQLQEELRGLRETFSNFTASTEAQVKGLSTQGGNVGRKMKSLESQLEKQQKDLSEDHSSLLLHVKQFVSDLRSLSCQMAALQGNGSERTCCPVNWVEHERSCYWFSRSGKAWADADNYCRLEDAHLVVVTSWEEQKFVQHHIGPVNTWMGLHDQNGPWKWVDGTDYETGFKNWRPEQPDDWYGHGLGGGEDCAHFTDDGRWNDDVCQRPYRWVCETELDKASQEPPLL

What is called Kd is the constant that tells how readily two partners part at equilibrium. Regarding ASGR1 (from UniProt P07306), the Kd with Spike (SARS-CoV-2) [1] is 94.8 nM.
Turning to KREMEN1 (from UniProt Q96MU8), the Kd with Spike (SARS-CoV-2) [2] was 19.3 nM.
